Results taken from patent publication US9771395B2, “Enhanced influenza hemagglutinin binders” (UNIVERSITY OF WASHINGTON, priority 2014, dated 2017).
Substitutions are numbered along the chain they refer to. Converted amounts (≈) assume the structure as drawn.

Assays:
[1] = tested on: human (H1N1) and avian (H5N1) influenza viruses; test: microbe, parasite or virus in culture; format: cell-based, Influenza virus
CA09 virus [2] = test: Post-exposure (therapeutic) administration after CA09 challenge in BALB/c mice; format: in vivo; conditions: for protection from lethality: 10 MLD50 CA09
Method: All animal experiments used in this study were approved by the University of Washington Institutional Animal Care and Use Committee. […] […] In a therapeutic setting, mice received the protein binder 0 (2 hours post-infection), 1, 2, 3, or 4 days post infection. The mice were monitored daily for weight loss and survival until 14 days post-infection. Animals that lost more than 30% of their initial body weight were euthanized in accordance with our animal protocol. The SCID (NOD SCID gamma, strain NOD.Cg-Prkdcscid Il2rgtm1Wjl/SzJ) mice and the MyD88−/−(strain B6.129P2(SJL)-Myd88tm1.1Defr/J) mice were purchased from Jackson Laboratory.

[3] = tested on: H1N1 A/California/07/2009 (CA09) virus; test: Pre-exposure administration and lethal influenza challenge in BALB/c mice; format: in vivo
Method: (§1) All animal experiments used in this study were approved by the University of Washington Institutional Animal Care and Use Committee. […] Two to forty-eight hours later, the mice were anesthetized by isoflurane and challenged intranasally with 10 MLD50 (fifty percent mouse lethal dose) of either A/California/07/09 (H1N1) (CA09) or A/PR/8/34 (H1N1) (PR8). In a therapeutic setting, mice received the protein binder 0 (2 hours post-infection), 1, 2, 3, or 4 days post infection. The mice were monitored daily for weight loss and survival until 14 days post-infection. Animals that lost more than 30% of their initial body weight were euthanized in accordance with our animal protocol. The SCID (NOD SCID gamma, strain NOD.Cg-Prkdcscid Il2rgtm1Wjl/SzJ) mice and the MyD88−/−(strain B6.129P2(SJL)-Myd88tm1.1Defr/J) mice were purchased from Jackson Laboratory.

CA09 virus [4] = test: Pre-exposure administration and CA09 challenge in SCID mice; format: in vivo, NOD SCID gamma (SCID) mice; conditions: 6.0 mg/kg IN 2 hrs before CA09
Method: as §1

CA09 virus [5] = test: Pre-exposure administration and CA09 challenge in MyD88-/- mice; format: in vivo; conditions: 6.0 mg/kg IN 2 hrs before CA09
Method: as §1

H2 HA = format: binding, Influenza virus
H5 HA = format: binding, Influenza virus
[6] = tested on: Group I Hemagglutinin (HA) subtypes; format: binding, Influenza virus
CA09 virus [7] = tested on: CA09 virus; set-up: species or system BALB/c mice; conditions: mouse, in vivo
CA09 virus [8] = test: Lung immunohistochemistry for influenza nucleoprotein (NP) after CA09 challenge; format: in vivo, BALB/c mice
Method: During in vivo challenge experiments, lungs were removed from mice and immersed in 10% neutral buffered formalin. Following fixation, tissues were removed from formalin and placed in paraffin. Immunohistochemical staining was performed on the Leica Bond Automated Immunostainer. Sections were deparaffinized in Leica Bond Dewax Solution (Leica Cat No. AR922) and rehydrated through 100% EtOH. After antigen retrieval with EDTA buffer pH 9.0 (Lieca Bond Epitope Retrieval Solution 2, Cat No AR9640) at 100° C. for 20 minutes and blocking endogenous peroxidase activity with 3.0% H2O2 for 5 minutes and blocking with 10% Normal Donkey Serum in TBS for 20 minutes the sections were incubated with Goat anti Influenza A Virus, (Meridian Life Science Inc. Cat No. B65141G) at 1:2000 or Normal Goat IgG, isotype control. (Invitrogen Cat No. 02-6202) at (1:5000 dilution) both in Bond Primary Antibody Diluent (Leica Cat No. AR9352) for 30 minutes at room temperature. Sections were then incubated with Rabbit anti Goat IgG (Jackson ImmunoResearch Cat. No. 305-005-045) 1:1500+5% Normal Donkey Serum for 8 minutes at RT followed by incubation with Goat anti Rabbit Poly-HRP polymer secondary detection (Leica Cat No DS9800) for 8 minutes at room temperature. Sections were then incubated with Leica Bond Mixed Refine DAB substrate detection for 10 minutes at room temperature. (Leica Cat No DS9800). […]

CA09 virus [9] = test: Bio-Plex inflammatory cytokines in lung homogenates after CA09 challenge; format: in vivo, BALB/c mice; conditions: 6.0 mg/kg IN 24 hrs before or after CA09; day 2 p.i.; P≦0.00119
Method: (§2) The concentrations of cytokines in lung tissue were measured. On days 2 and 4 post-infection, 8 mice per group were sacrificed and whole lung tissue was collected and immediately frozen. Lungs were thawed, weighed and lysed using the Bio-Plex® Cell Lysis Kit (Bio-Rad, Hercules, Calif.). The levels of interleukin (IL)-6, IL-10. IL-12(p70), interferon (IFN)-γ, and tumor necrosis factor (TNF)-α in the lysate were measured using a Bio-Plex) multiplex bead array kit (Bio-Rad, Hercules, Calif.). The Bio-Plex® assay was performed in accordance with the manufacturer's instructions.

[10] = ELISA for serum binding antibodies against HB36.6 after repeat dosing; format: in vivo, mice; conditions: 3.0 mg/kg IN doses two weeks apart
Method: Plates were blocked with 5% nonfat milk powder in PBS for 1 h at room temperature, and then washed three times with wash buffer (PBS-T; phosphate-buffered saline containing 0.05% Tween 20). Two-fold serial dilutions of samples were added to the wells and plates were incubated for 1 hr at room temperature. Following three washes with PBS-T, plates were incubated with horseradish-peroxidase conjugated goat anti-mouse IgG (1/3,000 dilution) secondary antibodies (Thermo Scientific Pierce) for 1 h at room temperature. After five washes with PBS-T, TMB substrate (KPL) was added to the wells for 30 min at room temperature.

[11] = Bio-Plex inflammatory cytokines in lung homogenates after protein administration (no infection); format: in vivo, BALB/c mice; conditions: single IN dose 6.0 mg/kg
Method: as §2, with “On days 2 and 4 post-infection, 8 mice per group were sacrificed and whole lung tissue was collected and immediately frozen.” left out

[12] = tested on: A/California/07/2009 (CA09) influenza virus; set-up: species or system ferrets; conditions: in vivo
[13] = target: Hemagglutinin (HA) of pandemic 2009 California H1N1 (Influenza A virus, UniProt C3W5S1)
[14] = mouse, in vivo
[15] = 0.01 mg/kg IN two hours prior to lethal CA09 challenge
[16] = 0.1 mg/kg IN two hours prior to lethal CA09 challenge
[17] = 1.0 mg/kg IN two hours prior to lethal CA09 challenge

NC(=O)c1ncn([C@@H]2O[C@H](CO)[C@@H](O)[C@H]2O)n1 [Ribavirin, 1- -D-ribofuranosyl-1,2,4-triazole-3-carboxamide, reference compound] gave an EC50 ([1]; Influenza A virus, MDCK, read-out: EC50 range) of 15 to 18 µg/mL (≈ 61.4 to 73.7 µM).

For CCOC(=O)C1=C[C@@H](OC(CC)CC)[C@H](NC(C)=O)[C@@H](N)C1 [oseltamivir, reference compound], the survival (CA09 virus [2]; 5 mg/kg/day by oral gavage, twice daily for 5 days starting day +1 p.i., 3 MLD50 CA09) was 0% and the “delay of time to death compared to controls” value (CA09 virus [2]; 5 mg/kg/day by oral gavage, twice daily for 5 days starting day +1 p.i., p<0.001) was “about 2.5 days”.

In the case of lysozyme [reference compound], the protection ([3]; 6.0 mg/kg, 48 or 2 hrs before CA09 challenge) is reported as “no protection”, the “survival (protected mice)” value (CA09 virus [4]) is reported as 0% and the weight loss (CA09 virus [4]) is reported as “significant weight loss”. The “survival (protected mice)” value (CA09 virus [5]) was 0% and the weight loss (CA09 virus [5]) was “significant weight loss”.

B1: HB36.6: HA stem binding protein, variant of HB36.5 with nine substitutions (SEQ ID NO: 3); FLAG-tagged in the studies (protein)
chain: SNAMDGQQLNRLLLENIGAWDPFGLGKDAYTYQAAEVLKAVYETNRAFDLAMRIHWIYNFAFKRRIPFARTQKLARRLLELKQAASSPLP
modifications: FLAG tag; (1)..(5) optionally absent; (86)..(90) optionally absent
notes: FLAG-tagged in the studies
In the case of B1, the “affinity increase over HB36.5” value (H2 HA) is reported as “greater than 40 fold”, the “affinity increase over HB36.5” value (H5 HA) is reported as > 10 fold and the “affinity compared with HB36.5” value [6] is reported as “higher affinity than HB36.5”. For the same molecule, the “cross-reactivity against Group I HA subtypes” value [6] was “broadly cross-reactive”, the “off-rates (dissociation)” value [6] was “did not show well-defined off-rates” and the “50% effective concentration (EC50) range” value [1] was 0.18 to 12.0 µg/mL. For the same molecule, the “mice recovered and survived” value [3, 15] was 20%, the “survived longer than controls” value [3, 15] was 2 to 3 days and the weight loss [3, 15] was “exhibited weight loss”. The survival [3, 16] was 100%, the weight loss [3, 16] was “little” and the survival [3, 17] was 100%. For the same molecule, the weight loss [3, 17] was “no”, the “protection from mortality and morbidity” value ([3]; lethal CA09 challenge 24 hours after the 4th dose (3.0 mg/kg IN), data not shown) was 100% and the protection ([3]; same dose (6.0 mg/kg) delivered intravenously (IV), data not shown) was “no protection”. The survival ([3]; single IN dose 6.0 mg/kg at 2, 24 or 48 hours before 10 MLD50 CA09) was 100%, the weight loss ([3]; single IN dose 6.0 mg/kg up to 48 hours before 10 MLD50 CA09) was “moderate to low” and the protection from lethality (CA09 virus [2]; 3.0 mg/kg IN daily for 4 days (days +1-4 p.i.)) was 100%. For the same molecule, the protection from lethality (CA09 virus [2]; single IN dose 3.0 mg/kg 2 hours p.i.) was 100%, the protection from lethality (CA09 virus [2]; single IN dose 3.0 mg/kg +1 day p.i.) was 60% and the rate of survival (CA09 virus [2]; single IN dose 10 mg/kg on day +1 p.i., 3 MLD50 CA09) was 70%. For the same molecule, the “effect of a single dose on survivors” value (CA09 virus [2]; single IN dose 1.0-10 mg/kg on day +1 p.i., CA09, dose-responsive) was “increase in the number of survivors”, the “reduction in mean viral titers in nasal washes vs untreated controls” value (CA09 virus [7]) was 1-3 log-fold and the “viral replication in the lungs vs untreated controls” value (CA09 virus [8]; 6.0 mg/kg IN 1 day before or post-infection, day 2 and day 4 p.i.) was “significantly less viral replication”. For the same molecule, the “NP positive (infected) cells in lung tissue vs controls” value (CA09 virus [8]; 6.0 mg/kg IN as therapeutic, day 4, P≦0.0263) was “significantly lower number of infected cells”, the “inflammatory cytokine response in lung (IL-6, IL-10, IL-12p70, TNF-α, IFN-γ)” value (CA09 virus [9]) was “several cytokines were significantly lower than in the controls” and the “serum binding antibodies against HB36.6” value ([10]; after the 1st and 2nd dose) was “No antibodies against HB36.6 were detected”. For the same molecule, the “animals with low levels of antibody responses” value ([10]; by 3rd dose) was 4 of the 10, the “cytokine levels by 48 hrs” value [11] was “dropped to pre-administration levels” and the “cytokine levels compared with 1u84” value [11] was “significantly lower than levels induced by 1u84”. The “survival (protected mice)” value (CA09 virus [4]) was 100%, the weight loss (CA09 virus [4]) was “minimal weight loss” and the “survival (protected mice)” value (CA09 virus [5]) was 90%. For the same molecule, the weight loss (CA09 virus [5]) was “minimal weight loss”, the “protection against influenza challenge in ferrets” value [12] was “affords prophylactic protection” and the “Kd stronger than HB36.5” value [13] was “roughly 6 fold”. For the same molecule, the “Kd tighter than any known de novo binder” value [13] was 5 fold, the Kd ([13]; read-out: Kd against pandemic 2009 California H1N1) was 3.1 nM and the “detection of protein in lung tissue” value [14] was “readily detected throughout the lung tissue”.

B2: HB36.5: stable, broadly cross-reactive HA binding protein (SEQ ID NO: 4), parent of HB36.6 (protein)
chain: B1 chain with N16W, T31D, Q33E, N45E, R46S, R65Q, R70H, T71A
modifications: (1)..(5) optionally absent; (86)..(90) optionally absent
With B2 the “cross-reactivity against Group I HA subtypes” value [6] was “broadly cross-reactive”.

B3: 1u84: scaffold protein (PDB ID 1u84) that HB36.6 is modeled on; non-protective control (protein)
chain: SNAMDGQQLNRLLLEWIGAWDPFGLGKDAYDVEAASVLQAVYETEDARTLAARIQSIYEFAFDEPIPFPHCLKLARRLLELKQAASCPLP
For B3, the protection (CA09 virus [2]; daily administration after CA09 challenge) was “no protection”, the “cytokine levels by 48 hrs” value [11] was “dropped to pre-administration levels” and the “survival (protected mice)” value (CA09 virus [4]) was 0%. For the same molecule, the weight loss (CA09 virus [4]) was “significant weight loss”, the “survival (protected mice)” value (CA09 virus [5]) was 0% and the weight loss (CA09 virus [5]) was “significant weight loss”.
